The values below come from article doi:10.1101/2025.10.27.684836 (bioRxiv, 2025).

The target of data set [1] is His-MBP-SALL4(QID-ZFC4) fusion protein (mouse). The data set can be described thus: SEC-MALS.
The data set “SEC-MALS” concerns the molecule itself. Nature of the data set: SEC-MALS.
The target of another data set is T1, SALL4 QID-ZFC4 (UniProt Q8BX22 201-240+870-940, internal_change).
T1 sequence: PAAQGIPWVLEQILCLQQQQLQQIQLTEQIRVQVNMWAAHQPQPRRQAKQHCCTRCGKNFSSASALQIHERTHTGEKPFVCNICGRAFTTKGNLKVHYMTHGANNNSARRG
Nature of the data set: SPR.

Regarding “His-MBP-SALL4(QID-ZFC4) fusion protein (domain or fragment)”, in data set [1], the stoichiometry N was 4.
With GAEAPMAPMPAAQGIPWVLEQILCLQQQQLQQIQLTEQIRVQVNMW (domain or fragment, mouse, UniProt Q8BX22 192-237, looked up) [recombinant SALL4 QID (192-237) peptide], the “stoichiometry N” value in “SEC-MALS” turned out to be 4.

B1: SPR probe, single ATATTA motif (dsDNA)
DNA 1: AGCAGGCCTAATATCGCAC
DNA 2: GTGCGATATTAGGCCTGCT
For the molecule B1, the binding result with SALL4 QID-ZFC4 is reported as “binds”.
